Laboratory results: patent US20120142098A1 (NOVIMMUNE S A, published 2012)

B1: 15C1 humanized VH mutant 1 together with 15C1 humanized VL A26 (antibody, human IgG1, V domains shown)
VH: QVQLQESGPGLVKPSDTLSLTCAVSGYSITGGYSWHWIRQPPGKGLEWMGYIHYSGYTDFNPSLKTRITISRDTSKNQFSLKLSSVTAVDTAVYYCARKDPSDAFPYWGQGTLVTVSS
VL: EIVLTQSPDFQSVTPKEKVTITCRASQSISDHLHWYQQKPDQSPKLLIKYASHAISGVPSRFSGSGSGTDFTLTINSLEAEDAATYYCQNGHSFPLTFGGGTKVEIK
notes: also called version VH mutant 1
B2: muCH2-chimeric IgG1 15C1 (antibody, V domains shown)
VH: DVQLQESGPDLIQPSQSLSLTCTVTGYSITGGYSWHWIRQFPGNKLEWMGYIHYSGYTDFNPSLKTRISITRDTSKNQFFLQLNSVTTEDTATYYCARKDPSDGFPYWGQGTLVTVSA
VL: DIVMTQSPATLSVTPGDRVSLSCRASQSISDHLHWYQQKSHESPRLLIKYASHAISGIPSRFSGSGSGTDFTLSIKSVEPEDIGVYYCQNGHSFPLTFGAGTKLELK
notes: domain: CH1 and hinge; The CH2 domain of human IgG1 is replaced with that of mouse IgG1; Limits are in EU numbering; also called chimeric IgG1 15C1 containing mouse CH2; muCH2 chim 15C1; not shown: mouse IgG1 heavy chain CH2 domain, EU positions 231 to 340; human IgG1 heavy chain CH3 domain (after EU position 340); human Kappa light chain constant region
B3: huCH2-mouse IgG1 15C1 (antibody, V domains shown)
VH: DVQLQESGPDLIQPSQSLSLTCTVTGYSITGGYSWHWIRQFPGNKLEWMGYIHYSGYTDFNPSLKTRISITRDTSKNQFFLQLNSVTTEDTATYYCARKDPSDGFPYWGQGTLVTVSA
VL: DIVMTQSPATLSVTPGDRVSLSCRASQSISDHLHWYQQKSHESPRLLIKYASHAISGIPSRFSGSGSGTDFTLSIKSVEPEDIGVYYCQNGHSFPLTFGAGTKLELK
notes: domain: CH1 and hinge; The CH2 domain of mouse IgG1 is replaced with that of human IgG1; Limits are in EU numbering; also called mouse IgG1 15C1 containing human CH2; not shown: human IgG1 heavy chain CH2 domain, EU positions 231 to 340; mouse IgG1 heavy chain CH3 domain (after EU position 340); mouse kappa light chain constant region
B4: mouse IgG1 15C1 (antibody, V domains shown)
VH: DVQLQESGPDLIQPSQSLSLTCTVTGYSITGGYSWHWIRQFPGNKLEWMGYIHYSGYTDFNPSLKTRISITRDTSKNQFFLQLNSVTTEDTATYYCARKDPSDGFPYWGQGTLVTVSA
VL: DIVMTQSPATLSVTPGDRVSLSCRASQSISDHLHWYQQKSHESPRLLIKYASHAISGIPSRFSGSGSGTDFTLSIKSVEPEDIGVYYCQNGHSFPLTFGAGTKLELK
notes: Murine IgG1/K antibody; The hybridoma-derived and the PEAK-cell recombinant forms are treated as one molecule; also called mu15C1; murine 15C1
B5: chimeric MAb with the 15C1 variable region on a human IgG4 backbone (antibody, V domains shown)
VH: DVQLQESGPDLIQPSQSLSLTCTVTGYSITGGYSWHWIRQFPGNKLEWMGYIHYSGYTDFNPSLKTRISITRDTSKNQFFLQLNSVTTEDTATYYCARKDPSDGFPYWGQGTLVTVSA
VL: DIVMTQSPATLSVTPGDRVSLSCRASQSISDHLHWYQQKSHESPRLLIKYASHAISGIPSRFSGSGSGTDFTLSIKSVEPEDIGVYYCQNGHSFPLTFGAGTKLELK
notes: also called hIgG4 15C1; human IgG4 version of 15C1
B6: chimeric IgG1 15C1 mutant # H (NKAF at EU positions 325 to 328) (antibody, V domains shown)
VH: DVQLQESGPDLIQPSQSLSLTCTVTGYSITGGYSWHWIRQFPGNKLEWMGYIHYSGYTDFNPSLKTRISITRDTSKNQFFLQLNSVTTEDTATYYCARKDPSDGFPYWGQGTLVTVSA
VL: DIVMTQSPATLSVTPGDRVSLSCRASQSISDHLHWYQQKSHESPRLLIKYASHAISGIPSRFSGSGSGTDFTLSIKSVEPEDIGVYYCQNGHSFPLTFGAGTKLELK
notes: Positions are in EU numbering; not shown: human IgG1 heavy chain constant region; human Kappa light chain constant region
B7: chimeric IgG1 15C1 mutant # C (SAAF at EU positions 325 to 328) (antibody, V domains shown)
VH: DVQLQESGPDLIQPSQSLSLTCTVTGYSITGGYSWHWIRQFPGNKLEWMGYIHYSGYTDFNPSLKTRISITRDTSKNQFFLQLNSVTTEDTATYYCARKDPSDGFPYWGQGTLVTVSA
VL: DIVMTQSPATLSVTPGDRVSLSCRASQSISDHLHWYQQKSHESPRLLIKYASHAISGIPSRFSGSGSGTDFTLSIKSVEPEDIGVYYCQNGHSFPLTFGAGTKLELK
notes: as for B6
B8: chimeric IgG1 15C1 mutant # E (NAAL at EU positions 325 to 328) (antibody, V domains shown)
VH: DVQLQESGPDLIQPSQSLSLTCTVTGYSITGGYSWHWIRQFPGNKLEWMGYIHYSGYTDFNPSLKTRISITRDTSKNQFFLQLNSVTTEDTATYYCARKDPSDGFPYWGQGTLVTVSA
VL: DIVMTQSPATLSVTPGDRVSLSCRASQSISDHLHWYQQKSHESPRLLIKYASHAISGIPSRFSGSGSGTDFTLSIKSVEPEDIGVYYCQNGHSFPLTFGAGTKLELK
notes: as for B6
B9: chimeric IgG1 15C1 mutant # D (SAAL at EU positions 325 to 328) (antibody, V domains shown)
VH: DVQLQESGPDLIQPSQSLSLTCTVTGYSITGGYSWHWIRQFPGNKLEWMGYIHYSGYTDFNPSLKTRISITRDTSKNQFFLQLNSVTTEDTATYYCARKDPSDGFPYWGQGTLVTVSA
VL: DIVMTQSPATLSVTPGDRVSLSCRASQSISDHLHWYQQKSHESPRLLIKYASHAISGIPSRFSGSGSGTDFTLSIKSVEPEDIGVYYCQNGHSFPLTFGAGTKLELK
notes: as for B6
B10: chimeric IgG1 15C1 mutant # F (SKAF at EU positions 325 to 328) (antibody, V domains shown)
VH: DVQLQESGPDLIQPSQSLSLTCTVTGYSITGGYSWHWIRQFPGNKLEWMGYIHYSGYTDFNPSLKTRISITRDTSKNQFFLQLNSVTTEDTATYYCARKDPSDGFPYWGQGTLVTVSA
VL: DIVMTQSPATLSVTPGDRVSLSCRASQSISDHLHWYQQKSHESPRLLIKYASHAISGIPSRFSGSGSGTDFTLSIKSVEPEDIGVYYCQNGHSFPLTFGAGTKLELK
notes: as for B6
B11: chimeric IgG1 15C1 mutant # G (NAAF at EU positions 325 to 328) (antibody, V domains shown)
VH: DVQLQESGPDLIQPSQSLSLTCTVTGYSITGGYSWHWIRQFPGNKLEWMGYIHYSGYTDFNPSLKTRISITRDTSKNQFFLQLNSVTTEDTATYYCARKDPSDGFPYWGQGTLVTVSA
VL: DIVMTQSPATLSVTPGDRVSLSCRASQSISDHLHWYQQKSHESPRLLIKYASHAISGIPSRFSGSGSGTDFTLSIKSVEPEDIGVYYCQNGHSFPLTFGAGTKLELK
notes: as for B6
B12: A mu 231-261 CH2 chimeric IgG1 15C1 (antibody, V domains shown)
VH: DVQLQESGPDLIQPSQSLSLTCTVTGYSITGGYSWHWIRQFPGNKLEWMGYIHYSGYTDFNPSLKTRISITRDTSKNQFFLQLNSVTTEDTATYYCARKDPSDGFPYWGQGTLVTVSA
VL: DIVMTQSPATLSVTPGDRVSLSCRASQSISDHLHWYQQKSHESPRLLIKYASHAISGIPSRFSGSGSGTDFTLSIKSVEPEDIGVYYCQNGHSFPLTFGAGTKLELK
notes: It is built that way here; copies: 2 + 2
B13: B mu 319-340 CH2 chimeric IgG1 15C1 (antibody, V domains shown)
VH: DVQLQESGPDLIQPSQSLSLTCTVTGYSITGGYSWHWIRQFPGNKLEWMGYIHYSGYTDFNPSLKTRISITRDTSKNQFFLQLNSVTTEDTATYYCARKDPSDGFPYWGQGTLVTVSA
VL: DIVMTQSPATLSVTPGDRVSLSCRASQSISDHLHWYQQKSHESPRLLIKYASHAISGIPSRFSGSGSGTDFTLSIKSVEPEDIGVYYCQNGHSFPLTFGAGTKLELK
notes: as for B12
B14: D mu 262-295 CH2 chimeric IgG1 15C1 (antibody, V domains shown)
VH: DVQLQESGPDLIQPSQSLSLTCTVTGYSITGGYSWHWIRQFPGNKLEWMGYIHYSGYTDFNPSLKTRISITRDTSKNQFFLQLNSVTTEDTATYYCARKDPSDGFPYWGQGTLVTVSA
VL: DIVMTQSPATLSVTPGDRVSLSCRASQSISDHLHWYQQKSHESPRLLIKYASHAISGIPSRFSGSGSGTDFTLSIKSVEPEDIGVYYCQNGHSFPLTFGAGTKLELK
notes: copies: 2 + 2
B15: chimeric IgG1 15C1 (antibody, V domains shown)
VH: DVQLQESGPDLIQPSQSLSLTCTVTGYSITGGYSWHWIRQFPGNKLEWMGYIHYSGYTDFNPSLKTRISITRDTSKNQFFLQLNSVTTEDTATYYCARKDPSDGFPYWGQGTLVTVSA
VL: DIVMTQSPATLSVTPGDRVSLSCRASQSISDHLHWYQQKSHESPRLLIKYASHAISGIPSRFSGSGSGTDFTLSIKSVEPEDIGVYYCQNGHSFPLTFGAGTKLELK
notes: also called chimeric 15C1; 15C1 on a human IgG1 backbone
B16: C mu 296-318 CH2 chimeric IgG1 15C1 (antibody, V domains shown)
VH: DVQLQESGPDLIQPSQSLSLTCTVTGYSITGGYSWHWIRQFPGNKLEWMGYIHYSGYTDFNPSLKTRISITRDTSKNQFFLQLNSVTTEDTATYYCARKDPSDGFPYWGQGTLVTVSA
VL: DIVMTQSPATLSVTPGDRVSLSCRASQSISDHLHWYQQKSHESPRLLIKYASHAISGIPSRFSGSGSGTDFTLSIKSVEPEDIGVYYCQNGHSFPLTFGAGTKLELK
notes: copies: 2 + 2

What follows are binders tested against T1, human TLR4/MD2 complex expressed on the cell surface (human, UniProt O00206 24-839; Q9Y6Y9 19-160) (assay: FACS (MFI) on CHO cells expressing human TLR4-MD2; PEAK supernatants at 0.33, 0.11 and 0.04 ug/ml).
T1 construct: also called CHO TLR4/MD2 transfectants
T1 sequence (O00206 24-839 limits assumed, chain 1 of 2): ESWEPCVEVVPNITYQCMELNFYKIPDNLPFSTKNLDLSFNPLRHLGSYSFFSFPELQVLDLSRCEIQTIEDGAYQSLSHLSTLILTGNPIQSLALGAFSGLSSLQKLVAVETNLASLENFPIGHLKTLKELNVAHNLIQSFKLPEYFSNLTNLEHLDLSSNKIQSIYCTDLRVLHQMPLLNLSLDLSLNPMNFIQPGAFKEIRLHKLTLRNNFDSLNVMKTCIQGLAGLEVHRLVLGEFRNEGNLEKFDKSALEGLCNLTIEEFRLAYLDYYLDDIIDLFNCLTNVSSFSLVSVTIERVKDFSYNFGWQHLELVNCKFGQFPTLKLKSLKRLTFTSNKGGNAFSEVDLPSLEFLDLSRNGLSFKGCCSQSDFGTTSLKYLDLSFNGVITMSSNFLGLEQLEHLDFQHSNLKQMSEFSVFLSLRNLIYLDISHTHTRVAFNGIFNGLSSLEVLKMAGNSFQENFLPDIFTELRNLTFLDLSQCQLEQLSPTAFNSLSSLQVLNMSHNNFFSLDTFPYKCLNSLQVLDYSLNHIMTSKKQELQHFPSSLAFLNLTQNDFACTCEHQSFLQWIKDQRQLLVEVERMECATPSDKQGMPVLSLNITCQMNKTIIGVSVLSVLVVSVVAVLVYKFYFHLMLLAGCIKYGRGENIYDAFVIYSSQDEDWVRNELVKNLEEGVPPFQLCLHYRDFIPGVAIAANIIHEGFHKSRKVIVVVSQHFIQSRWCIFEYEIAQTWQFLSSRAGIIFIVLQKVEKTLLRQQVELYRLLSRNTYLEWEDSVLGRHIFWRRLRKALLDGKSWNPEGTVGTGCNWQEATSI
T1 sequence (Q9Y6Y9 19-160 R56G limits assumed, chain 2 of 2): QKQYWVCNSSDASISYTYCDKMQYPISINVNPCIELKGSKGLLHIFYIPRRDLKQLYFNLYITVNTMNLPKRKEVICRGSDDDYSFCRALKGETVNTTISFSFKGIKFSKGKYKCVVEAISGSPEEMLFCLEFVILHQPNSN
Protocol: The binding of these mutants was analyzed by FACS on cells expressing recombinant human TLR4-MD2. PEAK cells were co-transfected with 1 ug of combinations of expression vectors encoding 15C1 humanized VH mutant 1 or 2 together with 15C1 humanized VL A26 or 15C1 humanized VH 4-28 together with 15C1 humanized VL mutant 1, 2, 3 or 4 shown in Example 4 using the Trans IT-LT1 transfection reagent (Mirus Bio Corporation, Madison Wis.). All transfections were carried out in duplicates. 72 h post-transfection, PEAK cells supernatants were collected and the concentration of recombinant human IgG1/Kappa measured by ELISA. The antibody concentrations of all the supernatants were then adjusted to 0.33 μg/ml. These supernatants and two serial dilutions of 0.11 and 0.04 ug/ml were then tested for binding to CHO cells expressing human TLR4-MD2 at their surface by FACS. 5×10⁵ cells were incubated with the diluted PEAK supernatant for 1 h at 4° C.
B1: binds.

Each binder was assayed against T1, human TLR4/MD2 complex expressed on the … (assay: FACS on CHO TLR4/MD2 transfectants).
B2: binds. B3: binds.

The binders below were run against T1, human TLR4/MD2 complex expressed on the … (assay: binding to TLR4/MD-2 transfected CHO cells).
B4: binds. B5: binds.

These binders were tested against T1, human TLR4/MD2 complex expressed on the … (assay: FACS on CHO stable cell line expressing human TLR4/MD2).
B6: binds. B7: binds. B8: binds. B9: binds. B10: binds. B11: binds.

Each binder was assayed against T1, human TLR4/MD2 complex expressed on the … (assay: FACS on CHO stable cell line expressing human TLR4-MD2 complex).
Protocol: Studies were then designed to evaluate which residues of the mouse CH2 domain are necessary for Fc-mediated inhibitory activity. Starting with the chimeric IgG115C1 containing the full length mouse CH2 domain, the approach was to identify the critical region of the CH2 domain by introducing a maximum number of human residues without observing a loss of the Fc-mediated inhibitory activity. The identification of these critical residues was determined by subdividing the mouse CH2 into 4 parts (A: EU positions 231 to 261; B: EU positions 319 to 340; C: EU positions 296-318 and D: EU positions 262 to 295) and introducing for each of the 4 sub-regions the corresponding CH2 amino acid sequence of a human IgG1 (see FIG. 6A). The sub-division of the mouse CH2 into four subregions was purely based on amino acid sequence homology with the human CH2. The four heavy chain mutants were engineered by overlapping PCR and recombinant MAbs expressed in PEAK. The corresponding antibodies were purified from transfected-cell supernatants by protein G affinity column chromatography and binding to CHO stable cell line expressing human TLR4-MD2 complex on their surface of the following antibodies was determined: muCH2-chimeric IgG1 15C1; chimeric IgG1 15C1; A mu 231-261 CH2 chimeric IgG1 15C1; B mu 319-340 CH2 chimeric IgG1 15C1; C mu 296-318 CH2 chimeric IgG1 15C1; and D mu 262-295 CH2 chimeric IgG1 15C1. 4×10⁵ cells/well were incubated for 30 minutes at 4° C. in 50 μl of phosphate buffered saline (PBS) with 1% bovine serum albumin (PBS-1% BSA) and either serial dilution of the appropriate antibody or an irrelevant human IgG1 isotype control. Cells were washed once with PBS-1% BSA and incubated in the same buffer with FMAT-Blue®-conjugated goat anti-human Kappa light chain antibody (1:250 dilution, Sigma K3502) for 30 minutes at 4° C. Cells were washed twice with PBS-1% BSA and analyzed using a FACScalibur® flow cytometer […] in the FL-4 channel.
B12: binds. B13: binds. B14: binds. B15: binds. B16: binds.
